Publication PMC4051775, “Intestinal Cell Barrier Function In Vitro Is Severely Compromised by Keratin 8 and 18 Mutations Identified in Patients with Inflammatory Bowel Disease” (PLoS ONE, 2014)

T1: keratin 8 wild type recombinant protein (human, UniProt P05787 1-483)
T1 construct: keratin 8 (K8), wild type, recombinant protein; also called K8 WT; K8
T1 sequence (looked up): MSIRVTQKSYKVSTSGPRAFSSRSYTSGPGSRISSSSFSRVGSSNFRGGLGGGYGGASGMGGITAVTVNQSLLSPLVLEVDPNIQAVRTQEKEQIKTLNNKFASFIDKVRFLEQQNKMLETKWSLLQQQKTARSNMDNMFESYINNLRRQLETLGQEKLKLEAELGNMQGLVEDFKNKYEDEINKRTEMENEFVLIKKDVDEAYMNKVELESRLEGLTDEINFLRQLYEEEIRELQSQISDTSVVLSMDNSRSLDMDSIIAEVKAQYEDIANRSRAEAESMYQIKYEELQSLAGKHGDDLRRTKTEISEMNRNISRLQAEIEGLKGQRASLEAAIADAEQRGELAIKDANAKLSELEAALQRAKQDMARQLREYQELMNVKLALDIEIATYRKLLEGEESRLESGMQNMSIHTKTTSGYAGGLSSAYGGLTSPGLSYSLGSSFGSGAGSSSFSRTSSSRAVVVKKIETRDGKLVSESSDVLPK

T2: keratin 8 G62C recombinant protein (human, UniProt P05787 1-483, G62C)
T2 construct: keratin 8 (K8) with the IBD patient mutation G62C, recombinant protein; The mutation was found in IBD patients; also called K8 G62C
T2 sequence (looked up): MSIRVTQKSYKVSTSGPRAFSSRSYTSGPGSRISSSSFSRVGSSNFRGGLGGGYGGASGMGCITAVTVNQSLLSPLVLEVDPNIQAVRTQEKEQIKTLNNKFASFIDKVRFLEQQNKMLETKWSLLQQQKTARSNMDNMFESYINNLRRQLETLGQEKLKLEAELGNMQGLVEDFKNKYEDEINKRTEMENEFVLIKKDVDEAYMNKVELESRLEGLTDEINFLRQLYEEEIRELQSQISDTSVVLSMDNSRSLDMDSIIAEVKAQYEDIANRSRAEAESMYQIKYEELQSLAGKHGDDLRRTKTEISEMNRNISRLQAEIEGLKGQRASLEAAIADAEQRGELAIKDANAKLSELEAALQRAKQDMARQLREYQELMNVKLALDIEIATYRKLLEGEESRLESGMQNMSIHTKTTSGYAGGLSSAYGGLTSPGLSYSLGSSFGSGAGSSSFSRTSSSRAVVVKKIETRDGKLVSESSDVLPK

T3: keratin 8 K464N recombinant protein (human, UniProt P05787 1-483, K464N)
T3 construct: keratin 8 (K8) with the IBD patient mutation K464N, recombinant protein; The mutation was found in IBD patients; also called K8 K464N
T3 sequence (looked up): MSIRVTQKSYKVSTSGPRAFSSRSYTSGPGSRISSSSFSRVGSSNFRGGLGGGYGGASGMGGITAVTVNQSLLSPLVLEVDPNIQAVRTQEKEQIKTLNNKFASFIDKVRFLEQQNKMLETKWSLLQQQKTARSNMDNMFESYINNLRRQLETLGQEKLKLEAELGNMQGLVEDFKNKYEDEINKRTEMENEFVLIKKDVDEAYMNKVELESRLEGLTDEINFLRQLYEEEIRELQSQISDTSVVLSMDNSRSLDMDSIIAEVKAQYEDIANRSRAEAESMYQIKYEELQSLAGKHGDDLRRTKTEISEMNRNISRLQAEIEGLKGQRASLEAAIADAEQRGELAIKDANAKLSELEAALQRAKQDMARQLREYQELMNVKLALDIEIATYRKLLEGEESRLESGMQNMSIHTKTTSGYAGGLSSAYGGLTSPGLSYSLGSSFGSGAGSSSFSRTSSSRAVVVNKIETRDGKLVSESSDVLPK


Key:
Details in all cases: both partners purified
[1] = molecular target: T1, keratin 8 wild type recombinant protein; assay: SPR; published SPR data of Owens et al. (ref. 26) re-analysed here with ENZO: Enzyme Kinetics to calculate Kd; monomeric K18 wild type or S230T in solution, wild type K8 immobilised
[2] = molecular target: T1, keratin 8 wild type recombinant protein; assay: SPR; published SPR data of Owens et al. (ref. 26) re-analysed here with ENZO: Enzyme Kinetics to calculate Kd; K8 wild type or mutant in solution, wild type K18 partner immobilised
[3] = molecular target: T2, keratin 8 G62C recombinant protein; assay: as above
[4] = molecular target: T3, keratin 8 K464N recombinant protein; assay: as above

| Kd [1] [nM] | Kd [2] [nM] | Kd [3] [nM] | Kd [4] [nM] | Binder |
| --- | --- | --- | --- | --- |
| 8.5 | 8.5 | 26.2 | 13.4 | keratin 18 wild type recombinant protein (natural protein, human, UniProt P05783 1-430, looked up, keratin 18 (K18), wild type, recombinant protein; also called K18 WT; K18) MSFTTRSTFSTNYRSLGSVQAPSYGARPVSSAASVYAGAGGSGSRISVSRSTSFRGGMGSGGLATGIAGGLAGMGGIQNEKETMQSLNDRLASYLDRVRSLETENRRLESKIREHLEKKGPQVRDWSHYFKIIEDLRAQIFANTVDNARIVLQIDNARLAADDFRVKYETELAMRQSVENDIHGLRKVIDDTNITRLQLETEIEALKEELLFMKKNHEEEVKGLQAQIASSGLTVEVDAPKSQDLAKIMADIRAQYDELARKNREELDKYWSQQIEESTTVVTTQSAEVGAAETTLTELRRTVQSLEIDLDSMRNLKASLENSLREVEARYALQMEQLNGILLHLESELAQTRAEGQRQAQEYEALLNIKVKLEAEIATYRRLLEDGEDFNLGDALDSSNSMQTIQKTTTRRIVDGKVVSETNDTKVLRH |
| 161 | – | – | – | keratin 18 S230T recombinant protein (natural protein, human, UniProt P05783 1-430, looked up, keratin 18 (K18) with the variation S230T found in an IBD patient and in controls, recombinant protein; Natural variant, earlier designated a polymorphism; also called K18 S230T) MSFTTRSTFSTNYRSLGSVQAPSYGARPVSSAASVYAGAGGSGSRISVSRSTSFRGGMGSGGLATGIAGGLAGMGGIQNEKETMQSLNDRLASYLDRVRSLETENRRLESKIREHLEKKGPQVRDWSHYFKIIEDLRAQIFANTVDNARIVLQIDNARLAADDFRVKYETELAMRQSVENDIHGLRKVIDDTNITRLQLETEIEALKEELLFMKKNHEEEVKGLQAQIATSGLTVEVDAPKSQDLAKIMADIRAQYDELARKNREELDKYWSQQIEESTTVVTTQSAEVGAAETTLTELRRTVQSLEIDLDSMRNLKASLENSLREVEARYALQMEQLNGILLHLESELAQTRAEGQRQAQEYEALLNIKVKLEAEIATYRRLLEDGEDFNLGDALDSSNSMQTIQKTTTRRIVDGKVVSETNDTKVLRH |
